Where two headings read alike, the source gives them in different places. Numbered stars: 1 amine (or outer) side, 2 acyl side, 3 side chain; on linkers, the order of the positions; unused ones are H or OH. Peptide text beside a SMILES is read from it. * marks the point of attachment. Doxorubicin(3'-N) = COc1cccc2c1C(=O)c1c(O)c3c(c(O)c1C2=O)C[C@@](O)(C(=O)CO)C[C@@H]3O[C@H]1C[C@H](N*)[C@H](O)[C@H](C)O1; Suc = O=C(CCC(=O)[*:2])[*:1]
What was measured:
[1] = mouse, in vivo, iv
in vivo = test: in vivo; parameters: species or system Balb/c male mice; conditions: male, Balb/c, mouse
[2] = gross toxicity (weight loss, death) of treated mice; assay type: in vivo
Protocol: Tumor growth and signs of physical discomfort were monitored daily. Such signs included any gross evidence of tumor necrosis, local tumor ulceration as well as evidence of toxicity including changes in the animal's mobility, response to stimulus, piloerection, eating, and weight. These procedures have been reviewed and approved by the Institutional Animal Care and Use Committee at The Scripps Research Institute. All the experiments were conducted in The Scripps Research Institute facilities which are accredited by the Association for the Assessment and Accreditation of Laboratory Animal Care. The Scripps Research Institute maintains an assurance with the Public Health Service, and is registered with the United States Department of Agriculture and is in compliance with all regulations relating to animal care and welfare.

control 293 cells [3] = test: Dox and LEG-3 uptake assay, cells not expressing legumain
Protocol: Dox and LEG-3 uptake assay. Legumain^+ 293 cells or control 293 cells (2.5×10^5 cells/well) were seeded in six-well plates. The culture plates were then incubated for 24 h at 37° C. and 5% CO2, and the medium in each well was replaced with 2 ml of serum-free, antibiotic-free medium containing various concentrations of Dox or LEG-type prodrug compounds. The cells were incubated 1.5 h then washed three times with 2 ml of cold PBS. At this point, cell nuclear positivity for Dox could be analyzed by fluorescent microscopy. For quantitative assays the cells were then lysed by adding 0.5 ml of water and gently rotated on an orbital shaker for 5 min at room temperature. The lysed cells were added to 1.5 ml acidified ethanol, and incubated at 4° C. in the dark for 3 h. Total Dox and LEG content was measured fluorometrically using a Perkin-Elmer LS-50-B spectrofluorometer (excitation: 470 nm; emission: 590 nm). Fluorescence intensity was translated to drug concentration by use of a standard curve prepared from Dox and LEG solutions in cell lysates that were not previously exposed to the drug. Results are expressed as the mean±SD of at least three replicates for each experiment.

HTP cells = test: WST-1 cytotoxicity assay, HTP cells; assay type: cell-based; conditions: 50% cell death, 48 h
Protocol: Cytotoxicity assays. The WST-1 cell proliferation reagent (Roche Molecular Chemicals, Germany) was used to determine cell proliferation by quantization of cellular metabolic activity. […] Subsequently, 10 μl of WST-1 solution (1 mg/ml WST-1, 25 μM -methyldibenzopyrazine methyl sulfate) was added per well, and mixtures were incubated for an additional 4 h. The tetrazolium salt WST-1 (4-[3-(4-Iodophenyl)-2-(4-nitrophenyl)-2H-5-tetrazolio-1,3-benzene disfonate) was cleaved by the mitochondrial succinate-tetrazolium-reductase system to formazan in cells in direct correlation with the number of metabolically viable cells in the culture. The amount of formazan salt was quantified in three replicates by absorbance at 450 nm using a micro-plate reader (Molecular Devices, Palo Alto, Calif.). All results were derived from replicate experiments with similar results.

[4] = system: CT26 murine colon carcinoma; test: CT26 syngeneic murine colon carcinoma model; assay type: in vivo, Balb/c mice
Description: Animal models. […] Balb/C mice aged 4 to 6 weeks from the breeding colony were inoculated with 500,000 syngeneic CT26 tumor cells per site subcutaneously in the back. […] Treatment was repeated at 2 day intervals. The human 293 tumor models were generated in WEHI nude mice (The Scripps Research Institute breeding colony). […] Tumor growth and physical signs were monitored daily including any gross evidence of tumor necrosis, local tumor ulceration as well as evidence of toxicity including mobility, response to stimulus, eating, and weight of each animal. These procedures have been reviewed and approved by the Institutional Animal Care and Use Committee at The Scripps Research Institute. The work was conducted in The Scripps Research Institute facilities which are accredited by the Association for the Assessment and Accreditation of Laboratory Animal Care. The Scripps Research Institute maintains an assurance with the Public Health Service, is registered with the United States Department of Agriculture and is in compliance with all regulations relating to animal care and welfare.
Animal models. […] Treatment was three times per week for two weeks.

control 293 cells [5] = test: WST-1 cytotoxicity assay, control 293 cells; conditions: Homo sapiens, HEK293, 48 h
Protocol: (§1) Cytotoxic assays. The WST-1 cell proliferation reagent (Roche Molecular Chemicals, Germany) was used to determine cell proliferation by quantification of cellular metabolic activity. Control 293 cells and legumain+ 293 cells were cultivated in microtiter plates (5×10^3 cells per well in 100 μl) and were incubated with serial concentrations of legubicin or doxorubicin for 48 h. Subsequently, 10 μl of WST-1 solution (1 mg/ml WST-1, 25 μM -methyldibenzopyrazine methyl sulfate) was added per well, and mixtures were incubated for an additional 4 h. The tetrazolium salt WST-1 (4-[3-(4-lodophenyl)-2-(4-nitrophenyl)-2H-5-tetrazolio-1,3-benzene disfonate) was cleaved by the mitochondrial succinate-tetrazolium-reductase system to formazan in cells which directly correlates to the number of metabolically viable cells in the culture. The amount of formazan salt was quantified in three replicates by absorbance at 450 nm using a micro-plate reader (Molecular Devices, Palo Alto, Calif.).
(§2) Cytotoxicity assays. The WST-1 cell proliferation reagent (Roche Molecular Chemicals, Germany) was used to determine cell proliferation by quantization of cellular metabolic activity. […] The amount of formazan salt was quantified in three replicates by absorbance at 450 nm using a micro-plate reader (Molecular Devices, Palo Alto, Calif.).

legumain+ 293 cells = test: WST-1 cytotoxicity assay, legumain+ 293 cells
Protocol: as §1, §2

cardiac myocytes = conditions: for apoptosis of cardiac myocytes (TUNEL): treated mice
legumain = legumain (Homo sapiens, UniProt Q99538); test: cleavage of LEG compounds by legumain; assay type: biochemical
[6] = system: peripheral blood leukocytes; test: marrow toxicity, peripheral blood leukocyte counts; assay type: in vivo, Balb C mice; conditions: six times in twelve days
Protocol: Determination of marrow toxicity. […] On day 7, retro-orbital sinus blood samples were collected into 10 mM EDTA, and counted by hemocytometer after lysis of red blood cells with an acidified methyl violet solution.

[7] = system: legumain expressing cells; test: Dox and LEG-3 uptake assay, legumain expressing cells; assay type: cell-based, human; conditions: legumain expressing cells in culture
Description: Dox and LEG-3 uptake assay.

[8] = plasma pharmacokinetics in mice bearing CT26 tumors; conditions: single intravenous bolus, MTD of Dox and molar equivalent of LEG-3, CT26 tumor mice
[9] = tissue distribution in mice bearing CT26 colon carcinomas; assay type: in vivo; conditions: twelve hours post injection
Protocol: Tissue distribution. LEG compounds or Dox was injected i.p. into mice, 12 h later the animals were perfused and the Dox autofluorescence was measured following homogenization in 50% ethanol and then diluted with an equal volume of 50% ethanol containing 0.6 M HCl. Fluorescence measurements were obtained with excitation at 470 nm and emission at 590 nm, concentrations were derived by conversion from a Dox standard curve. Tissues from saline injected mice provided controls. Blood samples were to 0.75 ml with PBS, centrifuged, the pellets washed with PBS and Dox extracted with ethanol, 0.3 M HCl.
Legumain is selectively functional in the tumor microenvironment.

Sequence of legumain (Q99538 18-323, species assumed): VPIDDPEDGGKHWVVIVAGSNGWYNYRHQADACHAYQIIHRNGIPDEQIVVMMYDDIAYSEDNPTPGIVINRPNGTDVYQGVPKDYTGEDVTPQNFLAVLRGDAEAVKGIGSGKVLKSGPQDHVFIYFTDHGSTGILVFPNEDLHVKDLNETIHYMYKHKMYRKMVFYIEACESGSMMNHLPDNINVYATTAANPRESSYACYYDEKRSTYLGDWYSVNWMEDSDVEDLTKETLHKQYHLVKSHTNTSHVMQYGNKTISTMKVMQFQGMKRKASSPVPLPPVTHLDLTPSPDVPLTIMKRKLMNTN

With COc1cccc2c1C(=O)c1c(O)c3c(c(O)c1C2=O)C[C@@](O)(C(=O)CO)C[C@@H]3O[C@H]1C[C@H](N)[C@H](O)[C@H](C)O1 [Dox, doxorubicin, reference compound] the “decline of plasma concentration” value [1] was “very rapidly declined”, the LD50 (in vivo; ip) was 17.2 µmol/kg and the MTD (in vivo; ip) was 9.8 µmol/kg. For the same compound, the LD50 at 5 days (in vivo; ip, i.p. 5×) was 3.4 µmol/kg, the MTD at 5 days (in vivo; ip, i.p. 5×) was 2.8 µmol/kg and the LD50 (in vivo; iv) was 25.8 µmol/kg. It also gave an MTD (in vivo; iv) of 18.2 µmol/kg, an LD50 at 5 days (in vivo; iv, i.v. 5×) of 5.1 µmol/kg and an MTD at 5 days (in vivo; iv, i.v. 5×) of 3.2 µmol/kg. The “Average weight loss (%)” value ([2]; Dose 1.72 μmol/kg) was 24%, the “Death (%)” value ([2]; Dose 1.72 μmol/kg) was 35% and the “Average weight loss (%)” value ([2]; Dose 5.4 μmol/kg) was 28%. For the same compound, the “Death (%)” value ([2]; Dose 5.4 μmol/kg) was 75%, the cell uptake (control 293 cells [3]) was “rapidly entered cells” and the EC50 (HTP cells) was 1500 nM. For the same compound, the anti-tumor efficacy ([4]; doses approaching its maximum tolerable dose (MTD)) was “failed to produce similar anti-tumor efficacy”, the toxicity ([4]; i.p. 5 mg/kg three times at 2 day intervals) was “fatal” and the EC50 (control 293 cells [5]) was 1200 nM. For the same compound, the “cytotoxic effect on legumain+ 293 cells” value (legumain+ 293 cells) was “only slightly more resistant” and the “apoptosis of cardiac myocytes (TUNEL)” value (cardiac myocytes) was “marked apoptosis”.
For COc1cccc2c1C(=O)c1c(O)c3c(c(O)c1C2=O)C[C@@](O)(C(=O)CO)C[C@@H]3O[C@H]1C[C@H](NC(=O)[C@H](CC(C)C)NC(=O)[C@H](CC(N)=O)NC(=O)[C@@H](NC(=O)CCNC(=O)CCC(=O)O)[C@@H](C)O)[C@H](O)[C@H](C)O1 [LEG-2, N-Succinyl-β-alanyl-L-threoinyl-L-Asparaginyl-L-Leucyl-Doxorubicin], the “in vivo tumoricidal activity” value ([4]; mice bearing CT26 tumors) was “demonstrable in vivo tumoricidal efficacy” and the cleavage by legumain (legumain) was “are cleaved by legumain”.
With COc1cccc2c1C(=O)c1c(O)c3c(c(O)c1C2=O)C[C@@](O)(C(=O)CO)C[C@@H]3O[C@H]1C[C@H](NC(=O)[C@H](CC(C)C)NC(=O)[C@H](CC(N)=O)NC(=O)[C@H](C)NC(=O)[C@H](C)NC(=O)CCC(=O)O)[C@H](O)[C@H](C)O1 [LEG-3] (Suc-AANL-{Doxorubicin(3'-N)}) the “reduction of total WBC counts” value ([6]; 4.94 μmol/kg) was “no reductions”, the “reduction of total WBC counts” value ([6]; 10-fold higher dose than 4.94 μmol/kg) was “only a slight reduction” and the LD50 (in vivo; ip) was > 197 µmol/kg. The MTD (in vivo; ip) was > 197 µmol/kg, the LD50 at 5 days (in vivo; ip, i.p. 5×) was > 197 µmol/kg and the MTD at 5 days (in vivo; ip, i.p. 5×) was 98.7 µmol/kg. The LD50 (in vivo; iv) was > 197 µmol/kg, the MTD (in vivo; iv) was > 197 µmol/kg and the LD50 at 5 days (in vivo; iv, i.v. 5×) was 197 µmol/kg. The MTD at 5 days (in vivo; iv, i.v. 5×) was 74 µmol/kg, the cell uptake [7] was “the end product Dox was found in cells” and the “Average weight loss (%)” value ([2]; Dose 1.97 μmol/kg) was 3%. For the same compound, the “Death (%)” value ([2]; Dose 1.97 μmol/kg) was 0%, the “Average weight loss (%)” value ([2]; Dose 4.9 μmol/kg) was 5% and the “Death (%)” value ([2]; Dose 4.9 μmol/kg) was 0%. For the same compound, the “Average weight loss (%)” value ([2]; Dose 49.4 μmol/kg) was 7%, the “Death (%)” value ([2]; Dose 49.4 μmol/kg) was 0% and the “Average weight loss (%)” value ([2]; Dose 98.7 μmol/kg) was 8%. For the same compound, the “Death (%)” value ([2]; Dose 98.7 μmol/kg) was 10%, the “Average weight loss (%)” value ([2]; Dose 197.4 μmol/kg) was 16% and the “Death (%)” value ([2]; Dose 197.4 μmol/kg) was 50%. The “toxicity based on weight loss and mortality” value ([2]; xenograft bearing mice (FIG. 13E)) was “negligible”, the cell uptake (control 293 cells [3]; cell cultures not expressing legumain) was “remained extracellular” and the “decline of plasma concentration” value [8] was “much slower”. For the same compound, the “histological evidence of cardiac toxicity” value (cardiac myocytes; 49.4 μmol/kg) was “no histological evidence of cardiac toxicity”, the “apoptosis of cardiac myocytes (TUNEL)” value (cardiac myocytes) was “not observed” and the “concentrations in cardiac, liver, kidney, spleen and lung tissues compared to Dox” value [9] was “reduced”. For the same compound, the “content in tumor tissues relative to Dox” value ([9]; CT26 tumors) was “more than 10 fold”.

Source: patent US20110300147A9, “Inhibiting tumor cell invasion, metastasis and angiogenesis” (The Scripps Research institute, priority 2005, published 2011)
